Experimental data taken from patent US20200181198A1 (3M INNOVATIVE PROPERTIES, published 2020).
Ends that are not written are not given here.

Key:
[1] = target: T1, Recombinant Human Epidermal Growth Factor (EGF) (human, UniProt P01133 971-1023); assay: dot blot, peptide spotted on nitrocellulose, EGF in solution, anti-EGF-IgG-HRP detection
T1 construct: Commercial reagent; also called EGF protein
Experimental: SEQ ID NO: 1 (1 microliter of a 10 nM solution in PBS containing 3 wt. % DMSO) and SEQ ID NO: 2 (1 microliter of a 10 nM solution in PBS containing 3 wt. % DMSO) were individually spotted at separate sites on a nitrocellulose membrane (obtained from Thermo Fisher Scientific, Waltham, Mass.) and the membrane was dried in air for about 30 minutes. The membrane was then incubated in 25 mL of blocking buffer (3 wt. % BSA in PBS) for one hour at room temperature. The membrane was washed three times (15 minutes for each wash) with 15 mL portions of fresh PBST. The washed membrane was incubated with EGF protein [10 microliters of a 100 ng/mL solution in blocking buffer (3 wt. % BSA in PBS)] with gentle agitation for one hour. The membrane was again washed three times (15 minutes for each wash) with 15 mL portions of fresh PBST. The washed membrane was incubated with anti-EGF-IgG-HRP [1:5000 dilution in 10 mL of the blocking buffer (3 wt. % BSA in PBS)] for one hour with gentle agitation. Following the incubation, the membrane was washed three times (15 minutes for each wash) with 15 mL portions of fresh PBST. The washed membrane was incubated with 10 mL of the development solution for horseradish peroxidase (TMB-Blotting Substrate Solution, Pierce-Fisher Scientific, Rockford, Ill.) with gentle agitation. The color development was stopped by adding water.

[2] = target: T1, Recombinant Human Epidermal Growth …; assay: SPR (Biacore 3000, CM5 chip), linker modified peptide immobilized by amine coupling, EGF analyte 62.5-1000 nM, 25 C, 1:1 Langmuir global fit
Experimental: (§1) The following Test Method A was used for determining the binding affinity (KD) of SEQ ID NO: 1 for EGF and TNF-[…] Binding experiments were performed using Biacore 3000 optical biosensors equipped with research-grade CM5 sensor chips (GE Healthcare Bio-Sciences Corporation). The reagents used for the amine-coupling steps [(1-ethyl-3-(3-dimethylaminopropyl)-carbodiimide (EDC); N-hydroxysuccinimide (NHS); and ethanolamine hydrochloride-NaOH (1 M, pH 8.5)] were obtained from GE Healthcare Bio-Sciences Corporation. In order to efficiently immobilize the peptide on the sensor chips, a modified version of SEQ ID NO:1 was prepared by SPPS in which a “CK” amino acid linker sequence was added to the N-terminal end of the SEQ ID NO: 1 peptide (i.e. linker modified version of SEQ ID NO: 1 for immobilization being […]). A standard coupling protocol was employed to immobilize the linker modified version of SEQ ID NO: 1 via the lysine residues. The immobilization was performed at 25° C. using HBS-EP as the running buffer. The CM-dextran surfaces of the sensor chip flow cells were activated by a seven minute injection (20 microliters/minute) of freshly prepared 1:1 50 mM NHS: 200 mM EDC. A solution of linker modified SEQ ID NO: 1 in acetic acid (20 mM, pH 5.5) was injected to target 200 response units (RU). […]

[3] = target: T2, Recombinant Human Tumor Necrosis Factor-alpha (TNF-alpha) (human, UniProt P01375 77-233); assay: SPR (Biacore 3000, CM5 chip), linker modified peptide immobilized, TNF-alpha as analyte, 25 C
T2 construct: Commercial reagent; also called TNFα
Experimental: as §1

[4] = target: T1, Recombinant Human Epidermal Growth …; assay: SPR (Biacore 3000, CM5 chip), linker modified peptide immobilized, EGF as analyte, Test Method A; EGF as analyte
Experimental: as §1

[5] = target: T2, Recombinant Human Tumor Necrosis …; assay: SPR (Biacore 3000, CM5 chip), linker modified peptide immobilized, TNF-alpha as analyte, Test Method A; TNF-alpha as analyte
Experimental: as §1

[6] = target: T1, Recombinant Human Epidermal Growth …; assay: dot blot, EGF spotted on nitrocellulose, biotinylated peptide in solution, Streptavidin-HRP detection
Experimental: EGF (1 microliter of a 10 nM solution in PBS was spotted a nitrocellulose membrane (obtained from Thermo Fisher Scientific) and the membrane was dried in air for about 30 minutes. The membrane was then incubated in 15 mL of blocking buffer (3 wt. % BSA in PBS) for one hour at room temperature. The membrane was washed three times (15 minutes for each wash) with 15 mL portions of fresh PBST. The washed membrane was incubated with Biotinylated SEQ ID NO: 1 [10 mL of a 10 ng/mL solution in blocking buffer (3 wt. % BSA in PBS)] with gentle agitation for one hour. The membrane was again washed three times (15 minutes for each wash) with 15 mL portions of fresh PBST. The washed membrane was incubated with Streptavidin-HRP [1:5000 dilution in 10 mL of the blocking buffer (3 wt. % BSA in PBS)] for 30 minutes with gentle agitation. Following the incubation, the membrane was washed three times (15 minutes for each wash) with 15 mL portions of fresh PBST. The washed membrane was incubated with 10 mL of the development solution for horseradish peroxidase (TMB-Blotting Substrate Solution, Pierce-Fisher Scientific) with gentle agitation. The color development was stopped by adding water. A dark spot developed at the application site on the membrane indicating affinity of SEQ ID NO: 1 for EGF.

T1 sequence (P01133 971-1023 limits assumed): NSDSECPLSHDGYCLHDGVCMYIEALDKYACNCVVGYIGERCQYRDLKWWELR
T2 sequence (P01375 77-233 limits assumed): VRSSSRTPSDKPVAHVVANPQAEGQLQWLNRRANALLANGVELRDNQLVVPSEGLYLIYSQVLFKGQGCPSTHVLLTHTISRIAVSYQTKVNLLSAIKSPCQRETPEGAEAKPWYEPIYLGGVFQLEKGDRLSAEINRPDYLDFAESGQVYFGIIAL

B1: SEQ ID NO: 2 peptide (KNVNWWSHWWHATD) (peptide)
peptide: Ac-KNVNWWSHWWHATD-NH2
notes: Chemically synthesized (SPPS, GenScript)
binding result [1]: binds

B2: SEQ ID NO: 1 peptide (YVSPGMKNVNWWSHWWHATD) (peptide)
peptide: Ac-YVSPGMKNVNWWSHWWHATD-NH2
notes: as for B1
binding result [1]: binds

B3: linker modified version of SEQ ID NO: 1 (CKYVSPGMKNVNWWSHWWHATD) (peptide)
peptide: CKYVSPGMKNVNWWSHWWHATD
modifications: not fully specified (N-terminus, C-terminus); also: immobilized on CM5 chip by amine coupling via lysine residues
Kd [2]: 0.706 µM | binding result [3]: no binding

B4: linker modified version of SEQ ID NO: 2 (CKNVNWWSHWWHATD) (peptide)
peptide: CKNVNWWSHWWHATD
modifications: not fully specified (N-terminus, C-terminus); also: immobilized on CM5 chip by amine coupling or conjugated to iodoacetyl magnetic beads via linker cysteine
Kd [4]: 2.6 µM | Kd [5]: 2450 µM

YVSPGMKNVNWWSHWWHATD-NH2 (not fully specified (N-terminus); also: biotinylated, site not given here) [Biotinylated SEQ ID NO: 1]
binding result [6]: binds
